Changes are numbered by the printed parent chain.

Series [1] concerns the target T1, Lin28 (Lin28A) (Mus musculus (murine), UniProt Q8K3Y3 1-209).
T1 sequence: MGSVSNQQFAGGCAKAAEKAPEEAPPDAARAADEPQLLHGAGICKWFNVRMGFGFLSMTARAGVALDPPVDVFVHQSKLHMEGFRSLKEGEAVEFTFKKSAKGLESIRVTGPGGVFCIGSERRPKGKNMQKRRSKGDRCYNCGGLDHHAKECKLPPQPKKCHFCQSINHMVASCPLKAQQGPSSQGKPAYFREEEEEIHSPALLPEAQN
Nature of the series: EMSA; EMSA: 50 mM Tris pH 7.6, 50 mM NaCl, 10% glycerol, 0.05% NP-40 alternative, 2 mM DTT, 4°C; 2-AP: 50 mM Tris pH 7.6, 50 mM NaCl, 10% glycerol, 4°C; FRET: EMSA buffer, 30°C. Particulars: protein: recombinant; label: 5'-32P.

In series [2] the target is T1, Lin28 (Lin28A). Nature of the series: EMSA; Hill n = 2 ± 1; EMSA: 50 mM Tris pH 7.6, 50 mM NaCl, 10% glycerol, 0.05% NP-40 alternative, 2 mM DTT, 4°C; 2-AP: 50 mM Tris pH 7.6, 50 mM NaCl, 10% glycerol, 4°C; FRET: EMSA buffer, 30°C. Particulars: protein: recombinant; label: 5'-32P; hairpin.
For series [3], the target named is T2, Lin28 C139A/C161A (Mus musculus (murine), UniProt Q8K3Y3 1-209, C139A;C161A).
T2 sequence: T1 sequence with C139A, C161A
Nature of the series: EMSA (stoichiometric); 0.5 µM RNA; EMSA: 50 mM Tris pH 7.6, 50 mM NaCl, 10% glycerol, 0.05% NP-40 alternative, 2 mM DTT, 4°C; 2-AP: 50 mM Tris pH 7.6, 50 mM NaCl, 10% glycerol, 4°C; FRET: EMSA buffer, 30°C. To be noted: protein: recombinant; label: 5'-32P; hairpin.

Series [4] deals with T3, Lin28 119-180 (Mus musculus (murine), UniProt Q8K3Y3 119-180).
T3 sequence: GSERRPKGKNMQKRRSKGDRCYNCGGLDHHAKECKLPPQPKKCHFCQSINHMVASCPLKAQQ
The series is described as above. Particulars: protein: recombinant, label: 5'-32P.

Series [5] concerns the target T1, Lin28 (Lin28A). The series is described as above. Particulars: protein: recombinant, label: 5'-32P.
Series [6] concerns the target T3, Lin28 119-180. Put plainly: EMSA; EMSA: 50 mM Tris pH 7.6, 50 mM NaCl, 10% glycerol, 0.05% NP-40 alternative, 2 mM DTT, 4°C; 2-AP: 50 mM Tris pH 7.6, 50 mM NaCl, 10% glycerol, 4°C; FRET: EMSA buffer, 30°C. To be noted: protein: recombinant; label: 5'-32P.
In series [7] the target is T1, Lin28 (Lin28A). Nature of the series: 2-AP fluorescence; 500 nM RNA (stoichiometric); EMSA: 50 mM Tris pH 7.6, 50 mM NaCl, 10% glycerol, 0.05% NP-40 alternative, 2 mM DTT, 4°C; 2-AP: 50 mM Tris pH 7.6, 50 mM NaCl, 10% glycerol, 4°C; FRET: EMSA buffer, 30°C. To be noted: protein: recombinant; label: 2-AP; hairpin.
Series [8] concerns the target T4, Lin28 C139A/C161A;Lin28 119-180 (Mus musculus (murine);Mus musculus …, UniProt Q8K3Y3;Q8K3Y3 1-209;119-180, C139A;C161A|).
T4 sequence 1: T1 sequence with C139A, C161A
T4 sequence 2: T3 sequence
Put plainly: EMSA (stoichiometric); 1:1:1 and 1:1:2 RNA:P3:P2 complexes; EMSA: 50 mM Tris pH 7.6, 50 mM NaCl, 10% glycerol, 0.05% NP-40 alternative, 2 mM DTT, 4°C; 2-AP: 50 mM Tris pH 7.6, 50 mM NaCl, 10% glycerol, 4°C; FRET: EMSA buffer, 30°C. To be noted: protein: recombinant;recombinant; tags: ;; label: 5'-32P; hairpin with 5' G-rich bulge and internal loop.

Series [9] has as its target T1, Lin28 (Lin28A). Nature of the series: EMSA; Hill n = 1.46 ± 0.01; EMSA: 50 mM Tris pH 7.6, 50 mM NaCl, 10% glycerol, 0.05% NP-40 alternative, 2 mM DTT, 4°C; 2-AP: 50 mM Tris pH 7.6, 50 mM NaCl, 10% glycerol, 4°C; FRET: EMSA buffer, 30°C. To be noted: protein: recombinant; label: 5'-32P; hairpin.
Series [10] has as its target T1, Lin28 (Lin28A). Nature of the series: 2-AP fluorescence; 500 nM RNA; second Lin28; EMSA: 50 mM Tris pH 7.6, 50 mM NaCl, 10% glycerol, 0.05% NP-40 alternative, 2 mM DTT, 4°C; 2-AP: 50 mM Tris pH 7.6, 50 mM NaCl, 10% glycerol, 4°C; FRET: EMSA buffer, 30°C. Particulars: protein: recombinant; label: 2-AP; hairpin.
For series [11], the target named is T1, Lin28 (Lin28A). Put plainly: EMSA; Hill n = 1.3 ± 0.1; EMSA: 50 mM Tris pH 7.6, 50 mM NaCl, 10% glycerol, 0.05% NP-40 alternative, 2 mM DTT, 4°C; 2-AP: 50 mM Tris pH 7.6, 50 mM NaCl, 10% glycerol, 4°C; FRET: EMSA buffer, 30°C. Particulars: protein: recombinant; label: 5'-32P; hairpin.
Series [12] concerns the target T1, Lin28 (Lin28A). Nature of the series: EMSA; 1:1 complex; EMSA: 50 mM Tris pH 7.6, 50 mM NaCl, 10% glycerol, 0.05% NP-40 alternative, 2 mM DTT, 4°C; 2-AP: 50 mM Tris pH 7.6, 50 mM NaCl, 10% glycerol, 4°C; FRET: EMSA buffer, 30°C. Particulars: protein: recombinant; label: 5'-32P; hairpin.
The target in series [13] is T3, Lin28 119-180. Put plainly: FRET strand displacement; 25 nM RNA, 30°C; ΔFRETmax 0.24, binding without displacement; EMSA: 50 mM Tris pH 7.6, 50 mM NaCl, 10% glycerol, 0.05% NP-40 alternative, 2 mM DTT, 4°C; 2-AP: 50 mM Tris pH 7.6, 50 mM NaCl, 10% glycerol, 4°C; FRET: EMSA buffer, 30°C. To be noted: protein: recombinant; label: 5'-Cy5 (S1); 5'-Cy3 (S3); blunt, 5-nt G-rich bulge in strand 1.

In series [14] the target is T1, Lin28 (Lin28A). Put plainly: FRET strand displacement; 25 nM RNA, 30°C; ΔFRETmax 0.84; EMSA: 50 mM Tris pH 7.6, 50 mM NaCl, 10% glycerol, 0.05% NP-40 alternative, 2 mM DTT, 4°C; 2-AP: 50 mM Tris pH 7.6, 50 mM NaCl, 10% glycerol, 4°C; FRET: EMSA buffer, 30°C. Particulars: protein: recombinant; label: 5'-Cy5 (S1); 5'-Cy3 (S3); blunt, 5-nt G-rich bulge in strand 1.
In series [15] the target is T2, Lin28 C139A/C161A. Nature of the series: FRET strand displacement; 25 nM RNA, 30°C; ΔFRETmax 0.77; EMSA: 50 mM Tris pH 7.6, 50 mM NaCl, 10% glycerol, 0.05% NP-40 alternative, 2 mM DTT, 4°C; 2-AP: 50 mM Tris pH 7.6, 50 mM NaCl, 10% glycerol, 4°C; FRET: EMSA buffer, 30°C. Particulars: protein: recombinant; label: 5'-Cy5 (S1); 5'-Cy3 (S3); blunt, 5-nt G-rich bulge in strand 1.

[16] abbreviates: hairpin with 5' G-rich bulge and internal loop.

Turning to UCUAUGAUACCACC (ssRNA) [TL13-26], the Kd in series [1] was around 43.3 nM.

Take UCUAUCAAACCACC (ssRNA) [TL13-26V]: the binding result in [1] is given as “no binding”. Take GGUACACCACAUAU (ssRNA) [TL28-41V]: the Kd in series [1] was around 43.3 nM.

For GCAGAUGUCUAUGAUACCACCCGGUACAGGAGAUAUCUGCA (structured_RNA) [TL-let-7g Δbulge], in series [2], the Kd came out at 0.9 ± 0.2 nM. For the molecule GCAGAUUUAGGGCAGAGAUUUUGCCCACAAGGAGUUAUCUGCA (structured_RNA) [TL-let-7d], the binding result in [3], in [4] (hairpin) and in series [5] (hairpin) was “binds” in each case. With AGGAGAUAUCUGCA (ssRNA) [TL33-46], the binding result in series [6] was “no binding”. Moreover, the Kd in series [1] worked out at 0.5 ± 0.1 nM. For GCAGAUUGAGGGUCUAUGAUACCACCCGGUACAGGAGAUAUCUGCA (structured_RNA, 2-aminopurine at A9) [TL-let-7g 2-AP9], the “apparent K (half saturation)” value in series [7] was around 548 nM.

With GCAGAUUGAGGGUCUAUGAUACCACCCGGUACAGGAGAUAUCUGCA (structured_RNA) [TL-let-7g], the binding result in [4] (setting [16]), in [5] (setting [16]) and in series [8] was “binds” in each case. Take GCAGAUUGAGGGUCUAUGAUACCACCCGGUACAGGAGAUAUCUGCA (structured_RNA, 2-aminopurine at A21) [TL-let-7g 2-AP21]: the “apparent K (half saturation)” value in [7] was found to be 500 nM. Regarding GCAGAUUGAGGGUCUAUGAUACCGCAAGGUACAGGAGAUAUCUGCA (structured_RNA) [TL-let-7g GNRA loop], the Kd in series [9] stood at 0.4 ± 0.2 nM. On to GCAGAUUGAGGGUCUAUGAUACCACCCGGUACAGGAGAUAUCUGCA (structured_RNA, 2-aminopurine at A36) [TL-let-7g 2-AP36], for which, in [7], the “apparent K (half saturation)” value was around 548 nM. Consider GCAGAUUGAGGGUCUAUGAUACCACCCGGUACAGGAGAUAUCUGCA (structured_RNA, 2-aminopurine at A31) [TL-let-7g 2-AP31], for which the “apparent K (half saturation)” value in series [10] was 1300 nM. Consider GCAGAUUGAGGGUCUUGUACCACCCGGUACAAGAUAUCUGCA (structured_RNA) [TL-let-7g Δiloop], for which the Kd in [11] was 0.52 ± 0.09 nM. Take GGUACAGGAGAUAU (ssRNA) [TL28-41]: the binding result in [6] is recorded as “no binding”. In addition, the Kd in [1] amounted to 0.29 ± 0.08 nM.

For GCAGAUUUAGGGUCACACCCACCACUGGGAGAUAUCUGCA (structured_RNA) [TL-let-7a-1], the binding result in series [4] (hairpin) and in series [5] (hairpin) was “binds” in each case.

GCGACUGUUGAAUCUCAUGGCGCA (structured_RNA) [TL-miR-21a]: in [12], the Kd is 13 nM. Take AUUGAGGGUCUAUA (ssRNA) [TL5-18]: in series [6], the binding result is reported as “no binding”. The Kd in series [1] was found to be 1.7 ± 0.4 nM.

B1: duplexbulge (dsRNA)
RNA 1: CGUACAGAUUGAGGGUGACAUCG
RNA 2: CGAUGUCAUAUCUGUACG
For B1, the “apparent K (half saturation)” value in series [13] stood at 99 nM; in [14], 58 nM; in [15], 354 nM.

GCCGCGGGGCCUUCGCCGCACACGGCA (structured_RNA) [TL-miR-99b]: in series [12], the Kd worked out at 15 nM.

As for AUACCACCCGGUAC (ssRNA) [TL19-32], the binding result in [1] is reported as “no binding”.

Source of the values: PMC3985620, “Stepwise assembly of multiple Lin28 proteins on the terminal loop of let-7 miRNA precursors”.
